# According to patent US20260325634 (published 2026):
# T1: CD123 (IL-3R alpha) (human, UniProt P26951)
# T1 chain: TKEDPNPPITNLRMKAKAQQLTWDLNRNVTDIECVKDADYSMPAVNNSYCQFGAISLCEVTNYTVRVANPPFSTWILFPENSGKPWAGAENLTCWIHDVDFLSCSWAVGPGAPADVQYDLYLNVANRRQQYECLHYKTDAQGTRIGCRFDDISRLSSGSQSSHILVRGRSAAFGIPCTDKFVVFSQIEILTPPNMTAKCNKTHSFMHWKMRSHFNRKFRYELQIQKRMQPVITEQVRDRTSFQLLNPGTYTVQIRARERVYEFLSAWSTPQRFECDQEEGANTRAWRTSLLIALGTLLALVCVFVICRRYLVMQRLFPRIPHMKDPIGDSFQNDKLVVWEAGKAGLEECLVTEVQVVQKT
# B1: AB1 (18B4D5) (antibody, V domains shown)
# VH: EVKLQESGPGLVKPSQSLSLTCTVTGYSITSDYTWNWIRQFPGNKLEWMGYISFSGSTSYNPSLKSRLSITRDTSKNQFFLQLNSVTTEDTATYYCARGLDYWGQGTTLTVSS
# VL: DIVMTQSPAIMSASLGERVTMTCTASSSISSSYLYWYQQKPGSSPKLWIYSTSNLASGVPARFSGSGSGTSYSLTISSMEAEDAATYYCHQLHRSPWTFGGGTKLEIKR
# Target: T1, CD123 (IL-3R alpha)
# Assay: BLI
binder,measurement,value
B1,Kd,< 1 pM
